Results: US20040254341

Biological target: APP695 with C-terminal dilysine and the mutation KM-DA594-597 to SYEA594-597, expressed in HEK 293 derivative cells, P05067
Sequence (P05067 whole entry, looked up, change not shown, tested part not stated): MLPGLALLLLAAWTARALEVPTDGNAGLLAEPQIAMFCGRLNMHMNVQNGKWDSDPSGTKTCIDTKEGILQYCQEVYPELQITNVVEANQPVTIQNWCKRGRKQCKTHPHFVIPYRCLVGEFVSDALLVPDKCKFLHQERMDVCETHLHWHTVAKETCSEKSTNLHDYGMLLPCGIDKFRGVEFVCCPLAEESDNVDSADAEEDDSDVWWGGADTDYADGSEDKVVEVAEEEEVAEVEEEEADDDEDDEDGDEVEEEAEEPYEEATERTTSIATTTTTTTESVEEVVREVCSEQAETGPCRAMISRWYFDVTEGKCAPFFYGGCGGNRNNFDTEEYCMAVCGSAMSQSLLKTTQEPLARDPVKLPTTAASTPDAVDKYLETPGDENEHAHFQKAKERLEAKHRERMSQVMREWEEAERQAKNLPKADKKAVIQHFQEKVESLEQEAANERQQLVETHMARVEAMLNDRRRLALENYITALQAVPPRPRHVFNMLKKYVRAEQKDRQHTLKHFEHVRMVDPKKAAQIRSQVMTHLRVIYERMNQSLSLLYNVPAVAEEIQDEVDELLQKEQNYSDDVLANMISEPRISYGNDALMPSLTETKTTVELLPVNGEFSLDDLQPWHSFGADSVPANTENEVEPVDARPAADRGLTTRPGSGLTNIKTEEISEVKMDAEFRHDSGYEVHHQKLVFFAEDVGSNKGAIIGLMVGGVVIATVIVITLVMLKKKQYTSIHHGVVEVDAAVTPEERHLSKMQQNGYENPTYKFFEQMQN

B1: Hu-Asp2 expressed in a stable HEK-293 derivative cell line that expresses higher levels of Hu-Asp2 (protein)
chain: ETDEEPEEPGRRGSFVEMVDNLRGKSGQGYYVEMTVGSPPQTLNILVDTGSSNFAVGAAPHPFLHRYYQRQLSSTYRDLRKGVYVPYTQGKWEGELGTDLVSIPHGPNVTVRANIAAITESDKFFINGSNWEGILGLAYAEIARPDDSLEPFFDSLVKQTHVPNLFSLHLCGAGFPLNQSEVLASVGGSMIIGGIDHSLYTGSLWYTPIRREWYYEVIIVRVEINGQDLKMDCKEYNYDKSIVDSGTTNLRLPKKVFEAAVKSIKAASSTEKFPDGFWLGEQLVCWQAGTTPWNIFPVISLYLMGEVTNQSFRITILPQQYLRPVEDVATSQDDCYKFAISQSSTGTVMGAVIMEGFYVVFDRARKRIGFAVSACHVHDEFRTAAVEGPFVTLDMEDCGYNIPQTDESTLMTIAYVMAAICALFMLPLCLMVCQWRCLRCLRQQHDDFADDISLLK
- β-secretase cleavage product CTF-99, Western blot with antibody C8: both mutant APP variants were proficiently cleaved by Asp2
